From publication PMC13379383

Target: thrombin (human, UniProt P00734;P00734 328-363;364-622)
Test: AuNP aggregation (plasmonic scattering); 16 nM thrombin, 4.59 uM TBA, 0.1 M NaCl, pH 7.4; LoD 0.5 nM (not a Kd)

Question: Does AGTCCGTGGTAGGGCAGGTTGGGGTGACT (ssDNA, 5'-amine C6 linker) [TBA (thrombin-binding aptamer)] bind?
Answer: binds
